Test results as given in US20060211041A1 (Astellas, published 2006).

Legend:
[1] = target: T1, GST protein (protein of GST moiety alone, from pGEX-3X) (UniProt P08515 1-218 = GST); experiment: GST pull down of 35S-labelled in vitro translated human AKBP2, SDS-PAGE and autoradiography
T1 construct: Control of the pull down
Experimental: Using the GST fusion Akt2 protein (to be referred to as GST-Akt2 hereinafter) prepared in the aforementioned (2), the presence or absence of direct interaction between human AKBP2 protein and Akt2 protein was verified by the GST-pull down method (H. Matsushime et al., Jikken Kogaku, Vol. 113, No. 6, p. 528, 1994). Firstly, using 0.5 μg of the pcDNA-human AKBP2 prepared in the aforementioned Example 5 as the template, and using 40 μl of a TNT kit (TNTR Quick Coupled Transcription/Translation System; Promega) and 1.3 MBq of a radioisotope (redivue Pro-mix L-[³⁵S]; Amersham), radioisotope-labeled human AKBP2 protein was prepared by in vitro transcription and translation in accordance with the attached protocols. A 15 μl portion of this human AKBP2 protein preparation solution was mixed with 1 μg of the GST protein or GST-Akt2 purified on glutathione beads in the aforementioned (2) and shaken at 4° C. for 1 hour after adding 0.3 ml of Buffer A (50 mM Tris-HCl (pH 7.5), 10% glycerol, 120 mM NaCl, 1 mM EDTA, 0.1 mM EGTA, 0.5 mM PMSF, 0.5% NP-40). […] After repeating this operation 4 times, proteins in the precipitate were separated by SDS polyacrylamide gel electrophoresis in accordance with a conventionally known method, and the human AKBP2 protein was detected by autoradiography. As a result, a band which is not detected when the GST protein is mixed was detected when GST-Akt2 was mixed.

[2] = target: T2, mouse AKBP2 over-expressed in NIH3T3 L1 fat cells from adenovirus vector AKBP2/pAdTrack-CMV
T2 chain: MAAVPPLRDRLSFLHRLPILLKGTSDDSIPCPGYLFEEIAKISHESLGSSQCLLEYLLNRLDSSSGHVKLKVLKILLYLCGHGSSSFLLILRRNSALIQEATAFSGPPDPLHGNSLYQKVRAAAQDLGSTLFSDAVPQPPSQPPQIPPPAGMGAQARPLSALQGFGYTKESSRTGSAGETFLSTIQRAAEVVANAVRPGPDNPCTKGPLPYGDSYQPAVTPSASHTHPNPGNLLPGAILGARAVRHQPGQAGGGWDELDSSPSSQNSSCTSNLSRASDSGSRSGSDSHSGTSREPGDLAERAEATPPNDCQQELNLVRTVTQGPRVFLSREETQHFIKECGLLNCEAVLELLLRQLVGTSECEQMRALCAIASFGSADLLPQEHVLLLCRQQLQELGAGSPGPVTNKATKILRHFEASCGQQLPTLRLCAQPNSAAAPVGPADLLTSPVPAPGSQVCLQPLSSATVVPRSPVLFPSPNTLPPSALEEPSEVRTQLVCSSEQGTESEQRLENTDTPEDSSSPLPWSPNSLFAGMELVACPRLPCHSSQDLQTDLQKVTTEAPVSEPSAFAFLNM

[3] = target: T3, mouse AKBP2 (Akt2 Binding Protein 2) fused to the GAL4 transcriptional activation domain (pACT2 library clone … (mouse, UniProt Q3U3N6 1-573)); experiment: yeast two hybrid, HIS3 (3AT resistance) and lacZ (β-galactosidase) reporters
T3 construct: Prey of the yeast two hybrid screen; also called mouse AKBP2 protein; not shown: limits and junction r
T3 sequence: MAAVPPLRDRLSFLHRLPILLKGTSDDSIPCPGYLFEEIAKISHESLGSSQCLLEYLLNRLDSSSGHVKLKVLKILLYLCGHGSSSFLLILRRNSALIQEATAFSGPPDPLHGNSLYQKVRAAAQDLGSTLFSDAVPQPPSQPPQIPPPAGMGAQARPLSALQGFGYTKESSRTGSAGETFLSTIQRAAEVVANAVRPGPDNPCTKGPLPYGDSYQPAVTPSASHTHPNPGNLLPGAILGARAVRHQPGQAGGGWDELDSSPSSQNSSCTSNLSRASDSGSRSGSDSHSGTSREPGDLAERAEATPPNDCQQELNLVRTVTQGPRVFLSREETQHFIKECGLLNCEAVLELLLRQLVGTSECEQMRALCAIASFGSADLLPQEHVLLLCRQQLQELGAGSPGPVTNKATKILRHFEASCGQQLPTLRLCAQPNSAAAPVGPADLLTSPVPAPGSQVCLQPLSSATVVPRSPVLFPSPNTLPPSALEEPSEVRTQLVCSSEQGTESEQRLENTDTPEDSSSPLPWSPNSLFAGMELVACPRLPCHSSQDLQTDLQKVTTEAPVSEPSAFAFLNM
Experimental: The aforementioned yeast strain MaV203 for two hybrid transformed by pDB-Akt2 was suspended in 400 ml of YPD liquid medium (DIFCO), cultured at 30° C. for about 6 hours until absorbance at a wave length of 590 nanometer became from 0.1 to 0.4, and then made into competent cells by the lithium acetate method, and the final amount was suspended in 1.0 ml of 0.1 M lithium-tris buffer. The cells were transformed with 20 μg of the mouse fat tissue derived cDNA library prepared in the aforementioned (3), and the cells were selected by culturing on a solid synthetic minimal medium (DISCO, 20% agarose) from which tryptophan and leucine as respective selection markers of pDB-Akt2 and the library had been deleted, thereby obtaining a transformant into which both plasmids were introduced. At the same time, in order to select a cell having an activated reporter gene HIS3 which is expressed when a fusion protein of the GAL4 DNA binding domain artificially expressed in the two hybrid system is linked to a fusion protein of the GAL4 transcriptional activation domain, the transformed cells were cultured at 30° C. for 5 days on the solid minimal medium (20% agarose) from which histidine was removed together with tryptophan and leucine and to which 20 mM of 3AT (3-amino-1,2,4-triazole; Sigma) as an inhibitor of the enzyme encoded by HIS3 was added. […]

T1 sequence (P08515 whole entry): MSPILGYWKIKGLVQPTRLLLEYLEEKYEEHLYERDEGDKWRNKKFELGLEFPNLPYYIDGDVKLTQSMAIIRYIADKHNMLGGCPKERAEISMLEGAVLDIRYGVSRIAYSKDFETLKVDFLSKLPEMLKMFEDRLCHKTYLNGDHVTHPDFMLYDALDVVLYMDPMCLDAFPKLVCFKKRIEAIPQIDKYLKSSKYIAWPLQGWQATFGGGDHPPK

B1: human AKBP2-V5-His 6 fusion protein (in vitro transcribed and translated from pcDNA-human AKBP2, 35S-labelled) (other, not shown: small tags and cut ends)
chain: MAAAPPLRDRLSFLHRLPILLKGTSDDDVPCPGYLFEEIAKISHESPGSSQCLLEYLLSRLHSSSGHGKLKVLKILLYLCSHGSSFFLLILKRNSAFIQEAAAFAGPPDPLHGNSLYQKVRAAAQDLGSTLFSDTVLPLAPSQPLGTPPATGMGSQARPHSTLQGFGYSKEHGRTGSAGEAFLSTIQKAAEVVASAMRPGPESPSTRRLLPRGDTYQPAMMPSASHGPPTLGNLLPGAIPGPRAVRHQPGQAGGGWDELDSGPSSQNSSQNSDLSRVSDSGSHSGSDSHSGASREPGDLAERVEVVALSDCQQELSLVRTVTRGPRAFLSREEAQHFIKACGLLNCEAVLQLLTCHLRGTSECTQLRALCAIASLGSSDLLPQEHILLRTRPWLQELSMGSPGPVTNKATKILRHFEASCGQLSPARGTSAEPGPTAALPGPSDLLTDAVPLPGSQVFLQPLSSTPVSSRSPAPSSGMPSSPVPTPPPDASPIPAPGDPSEAEARLAESRRWRPERIPGGTDSPKRGPSSCAWSRDSLFAGMELVACPRLVGAGAAAGESCPDAPRAPQTSSQRTAAKEPPGSEPSAFAFLNA
modifications: radioisotope-labelled (redivue Pro-mix L-[35S])
notes: also called human AKBP2 protein
binding result [1]: no binding (tested: 1 µg of the GST protein)

B2: Akt2 of NIH3T3 L1 fat cells (endogenous, immunoprecipitated with anti-Akt2 antibody) (protein)
chain: MNEVSVIKEGWLHKRGEYIKTWRPRYFLLKSDGSFIGYKERPEAPDQTLPPLNNFSVAECQLMKTERPRPNTFVIRCLQWTTVIERTFHVDSPDEREEWMRAIQMVANSLKQRGPGEDAMDYKCGSPSDSSTSEMMEVAVNKARAKVTMNDFDYLKLLGKGTFGKVILVREKATGRYYAMKILRKEVIIAKDEVAHTVTESRVLQNTRHPFLTALKYAFQTHDRLCFVMEYANGGELFFHLSRERVFTEDRARFYGAEIVSALEYLHSRDVVYRDIKLENLMLDKDGHIKITDFGLCKEGISDGATMKTFCGTPEYLAPEVLEDNDYGRAVDWWGLGVVMYEMMCGRLPFYNQDHERLFELILMEEIRFPRTLGPEAKSLLAGLLKKDPKQRLGGGPSDAKEVMEHRFFLSINWQDVVQKKLLPPFKPQVTSEVDTRYFDDEFTAQSITITPPDRYDSLDPLELDQRTHFPQFSYSASIRE
phosphorylation of the 473rd serine of immunoprecipitated Akt2, western blotting with anti-phosphorylated serine473 antibody, 30 minutes of insulin stimulation [2]: degree of the phosphorylation acceleration was weakened in the cells infected with the AKBP2 virus than in the control virus-infected cells
phosphorylation of the 473rd serine of immunoprecipitated Akt2, western blotting with anti-phosphorylated serine473 antibody, no stimulation [2]: the phosphorylated state at the time of no stimulation was reduced in the cells infected with the AKBP2 virus in comparison with the control virus-infected cells

B3: human Akt2 fused to the GAL4 DNA binding region (expressed from pDB-Akt2 in yeast MaV203) (other, UniProt P31751 1-481, looked up)
chain: MNEVSVIKEGWLHKRGEYIKTWRPRYFLLKSDGSFIGYKERPEAPDQTLPPLNNFSVAECQLMKTERPRPNTFVIRCLQWTTVIERTFHVDSPDEREEWMRAIQMVANSLKQRAPGEDPMDYKCGSPSDSSTTEEMEVAVSKARAKVTMNDFDYLKLLGKGTFGKVILVREKATGRYYAMKILRKEVIIAKDEVAHTVTESRVLQNTRHPFLTALKYAFQTHDRLCFVMEYANGGELFFHLSRERVFTEERARFYGAEIVSALEYLHSRDVVYRDIKLENLMLDKDGHIKITDFGLCKEGISDGATMKTFCGTPEYLAPEVLEDNDYGRAVDWWGLGVVMYEMMCGRLPFYNQDHERLFELILMEEIRFPRTLSPEAKSLLAGLLKKDPKQRLGGGPSDAKEVMEHRFFLSINWQDVVQKKLLPPFKPQVTSEVDTRYFDDEFTAQSITITPPDRYDSLGLLELDQRTHFPQFSYSASIRE
notes: mature; Bait of the yeast two hybrid screen; also called Akt2 (PKBβ); not shown: limits and junction residues not pri
binding result [3]: binds
